According to US20190091227A1, “METHODS FOR TREATING ER+, HER2-, HRG+ BREAST CANCER USING COMBINATION THERAPIES COMPRISING AN ANTI-ERBB3 ANTIBODY” (Merrimack Pharmaceuticals, Inc., priority 2016, published 2019):
Entries after “also recorded” stand apart in the source; their conditions may differ. Where two headings read alike, the source gives them in different places.

What was measured:
[1] = cited from earlier work
[2] = tested on: CDK2; assay: CDK2 activation (phospho-Thr160) by Western blotting in MCF7 cells; format: cell-based, human; conditions: for CDK2 activation: MCF7, agent alone, 20-24 hours, HRG 10 nM, fulvestrant, palbociclib, abemaciclib 100 nM
Protocol: Cellular lysates were prepared by lysis in MPER lysis buffer with the addition of protease and phosphatase inhibitors for 30 minutes on ice. Cellular debris was removed by centrifugation at 10,000 rpm. Proteins were analyzed by Western blotting according to standard protocols.

[3] = tested on: RB; assay: RB phosphorylation (S807/811, S780) by Western blotting in MCF7 cells; format: cell-based, human; conditions: MCF7, 20-24 hours; HRG 10 nM, fulvestrant 50 nM, palbociclib, abemaciclib 40 nM
Protocol: MCF7 cells were cultured as described above. […] Cellular lysates were prepared by lysis in MPER lysis buffer with the addition of protease and phosphatase inhibitors for 30 mins on ice. Cellular debris were removed by centrifugation at 10,000 rpm. Proteins were analyzed by Western blotting according to standard protocols. Protein loading was estimated by blotting with a β-actin antibody (β-Actin (13E5) Rabbit mAb #4970 Cell Signal) and RB activation was measured by detection of phosphorylation of RB (pRB) at pRb (S807/811): Cat #8516 pRb (S780): Cat #8180. Control antibodies as follows total AKT: Cat #9272 pAKT: Cat #4060.

[4] = tested on: MCF7 cells; assay: Proliferation assay (Cell Titer-Glo), MCF7; format: cell-based, human
Protocol: (§1) Cells were seeded in duplicate or triplicate at 1500 to 5000 cells per well in 96 well plates, Opaque-walled 96-well plates with clear bottom: 96-well, Black/Clear, Flat bottom with lid, FALCON, 353219 in reduced serum conditions at either 3% v/v FBS or 1% v/v FBS. The day after plating recombinant HRGβ1 was added to yield a final concentration of 10 nM. Control wells received media without HRGβ1. Plates were then incubated for the indicated time period of 4 to 6 days at 37° C. in a humid atmosphere with 95% air, 5% CO2.
(§2) The day after plating recombinant HRGβ1 was added to yield a final concentration of 10 nM. Control wells received media without HRGβ1. […] Where indicated CDK inhibitors were added at 10 μM and dilutions were performed to generate a dose-response curve with 2 controls wells per row. Plates were then incubated for the indicated time period of 4 to 6 days at 37° C. in a humid atmosphere with 95% air, 5% CO2. Growth inhibition was calculated as a function of the relative inhibition or proliferation of cells treated with either growth factor or antagonists to cells treated with diluent only, over the same time period.
(§3) The day after plating recombinant HRGβ1 was added to yield a final concentration of 10 nM. Control wells received media without HRGβ1. […] Where indicated CDK inhibitors were added at 10 μM and dilutions were performed to generate a dose-response curve with 2 controls wells per row. Plates were then incubated for the indicated time period of 4 to 6 days at 37° C. in a humid atmosphere with 95% air, 5% CO2.
(§4) To measure proliferation, Cell Titer-Glo (CTG) assays were performed as per manufacturer's instructions. Specifically, reagent-1 and reagent-2 were equilibrated to room temperature at which point reagent-1 was added to reagent-2 and mixed by vortex. Test plates containing cells were equilibrated to room temperature for 30 minutes at which point an equal volume of CTG reagent was added to each well of the test plate, typically 100 μl to give a final volume of 200 μl per well. Each plate was then sealed with a foil plate sealer and mixed on an orbital shaker for 10 minutes to lyse cells and release cellular ATP. Following mixing plates were incubated at room temperature for 15 minutes to stabilize the luminescent signal. Data was collected by measuring relative luminescence on a Synergy H1 plate reader using the luminescence program. Growth was calculated and expressed as a relative value to the unstimulated control wells on each individual plate. Growth inhibition was calculated as a function of the relative inhibition of cells treated with antagonists to the growth of cells treated with diluent only, over the same time period. Data was then plotted using GraphPad Prism software.

[5] = tested on: MCF7 cells; assay: Cell cycle / S-phase by EdU incorporation and flow cytometry in MCF7 cells; format: cell-based, human
Protocol: FIG. 13 is a representative FACS plot of the cell cycle distribution. The gate settings and percentage for cells in G0/G1, S and G2/M phases are indicated. DNA synthesis (S-phase) was determined by quantifying cells positive for both EdU incorporation and DNA content.

[6] = tested on: metastatic ER-positive HER2-negative breast cancer; conditions: letrozole plus palbociclib, combination arm; cited from earlier work
[7] = tested on: T47D cells; assay: Proliferation assay (Cell Titer-Glo), T47D; format: cell-based, human
Protocol: as §1, §2, §3, §4

[8] = tested on: MCF7 cells; assay: Proliferation assay (Cell Titer-Glo), MCF7; format: cell-based, human; conditions: MCF7, ligands 1 nM, fulvestrant 50 nM, palbociclib 40 nM, 6 days
[9] = tested on: HCC1428 cells; assay: Proliferation assay (Cell Titer-Glo), HCC1428; format: cell-based, human; conditions: HCC1428, stimulated with HRG for 6 days
Protocol: as §1
(§5) To measure proliferation, Cell Titer-Glo (CTG) assays were performed as per manufacturer's instructions. Specifically, reagent-1 and reagent-2 were equilibrated to room temperature at which point reagent-1 was added to reagent-2 and mixed by vortex. […] Data was collected by measuring relative luminescence on a Synergy H1 plate reader using the luminescence program. Growth was calculated and expressed as a relative value to the unstimulated control wells on each individual plate. Growth inhibition was calculated as a function of the relative inhibition of cells treated with antagonists to the growth of cells treated with diluent only, over the same time period. […]

[10] = tested on: ZR75-1 cells; assay: Proliferation assay (Cell Titer-Glo), ZR75-1; format: cell-based, human; conditions: ZR75-1
Protocol: as §2
The day after plating recombinant HRGβ1 was added to yield a final concentration of 10 nM. Control wells received media without HRGβ1. […]
as §5, with “instructions.” for “instructions. Specifically, reagent-1 and reagent-2 were equilibrated to room temperature at which point reagent-1 was added to reagent-2 and mixed by vortex.”

CC(=O)c1c(C)c2cnc(Nc3ccc(N4CCNCC4)cn3)nc2n(C2CCCC2)c1=O [palbociclib, 6-acetyl-8-cyclopentyl-5-methyl-2-{[5-(piperazin-1-yl)pyridin-2-yl]amino}pyrido[2,3-d]pyrimidin-7(8H)-one]
solubility ([1]; above pH 4): reduces significantly
solubility ([1]; at or below pH 4): high-solubility compound
CDK2 activation [2]: inhibited CDK2 activation
RB phosphorylation / activation [3]: decrease RB activation
proliferation ([4]; MCF7, single agent CDK4/6 inhibitor over a dose range, 6 days): inhibited proliferation in a dose dependent manner
S-phase cell cycle progression ([5]; MCF7, single agents in the absence of HRG): efficacious at inhibiting S-phase cell cycle progression
overall survival [6]: did not reach statistical significance
progression free survival (PFS) [6]: statistically significant increase

B1: HRG: heregulin, naturally occurring ligand of ErbB3; recombinant HRGβ1 from R&D Systems used in the assays (protein)
chain: SHLVKCAEKEKTFCVNGGECFMVKDLSNPSRYLCKCPNEFTGDRCQNYVMASFYKHLGIEFMEAE
proliferation ([7]; estradiol and HRG in combination): increased proliferation
inhibiting fulvestrant, palbociclib and combination activity, ligand comparison ([7]; ligands 1 nM, fulvestrant 50 nM, palbociclib 40 nM, 6 days): most effective ligand
proliferation ([7]; stimulated with HRG for 6 days): induced proliferation; also recorded: significantly increased the proliferation
inhibiting fulvestrant, palbociclib and combination activity, ligand comparison [8]: most effective ligand
proliferation [9]: induced proliferation
effect of HRG on inhibition of CDK2 activation by fulvestrant, palbociclib or abemaciclib ([2]; MCF7, HRG 10 nM): blocked this inhibitory activity
CDK2 activation [2]: can activate CDK2
RB phosphorylation / activation [3]: promoted the phosphorylation and activation of RB
effect of HRG on the CDK4/6 inhibitor-fulvestrant combination ([4]; MCF7): blocked
effect of HRG on CDK4/6 inhibitor activity ([4]; MCF7, HRG 10 nM, CDK4/6 inhibitor dose range): significantly repressed CDK4/6 inhibitor activity
proliferation ([4]; MCF7, estradiol and HRG in combination): increased proliferation
proliferation ([4]; MCF7, stimulated with HRG for 6 days): induced proliferation; also recorded: significantly increased the proliferation
effect of HRG on cell cycle inhibitory activity of the palbociclib-fulvestrant combination ([5]; MCF7): blocked the cell cycle inhibitory activity
proportion of cells in the S-phase ([5]; MCF7, 24 hours, resting cells 15.8%): 55%
effect of HRG on cell cycle inhibitory activity of fulvestrant or palbociclib ([5]; MCF7, single agents): significantly inhibited
effect of HRG on CDK4/6 inhibitor activity [10]: inhibited the activity of CDK4/6 inhibitors
